According to doi:10.1101/2021.07.08.451670:

Target: P-GltPh (S279E/D405N) (UniProt O59010)
Assay: cryo-EM structure

stoichiometry N: 3
Substance: P-GltPh (S279E/D405N) (from UniProt O59010 1-417) (natural protein)
